Target: T1, human PD-L1 on stably transfected cell line HEK293T/hPD-L1 (human, UniProt Q9NZQ7 19-290)
T1 construct: whole, on cells
Assay: flow cytometry on HEK293T/hPD-L1 cells, 10 ug/ml nanobody, anti-human IgG Fc (FITC)
Procedure: The stably transfected cell line HEK293T/hPD-L1 was digested and centrifuged, and the supernatant was removed. The cells were washed once with PBS and the cell density was adjusted to 2.5×10⁶ cells/mL. 100 μL of cell suspension was added to each cell sample, i.e., 2.5×10⁵ cells/sample. Different anti-human PD-L1 candidate nanobodies (at a concentration of 10 μg/ml) were added into the samples. The samples were incubated in a 4° C. refrigerator for 20 min and then centrifuged to remove the supernatant, and washed once with PBS. The diluted antibody anti-human IgG Fc (FITC) was used as a secondary antibody to resuspend the above cells. The abtained samples were incubated in a 4° C. refrigerator for 20 min and centrifuged to remove the supernatant. The cells were washed twice with PBS, transferred to a flow tube; and detected on a flow cytometer to obtain the binding activity of the candidate nanobody with human PD-L1, as shown in FIG. 1.

T1 sequence (Q9NZQ7 19-290): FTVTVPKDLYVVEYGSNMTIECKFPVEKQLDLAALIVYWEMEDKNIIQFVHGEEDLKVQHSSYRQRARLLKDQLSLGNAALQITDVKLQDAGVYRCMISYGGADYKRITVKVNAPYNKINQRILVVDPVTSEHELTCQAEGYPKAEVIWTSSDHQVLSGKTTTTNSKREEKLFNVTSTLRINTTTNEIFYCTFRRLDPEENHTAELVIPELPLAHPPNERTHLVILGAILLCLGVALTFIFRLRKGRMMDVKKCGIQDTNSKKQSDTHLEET

Row | Binder | binding result
1 | h_Nb5 (expressed from pFUSE-hIgG1-Fc) (Fc fusion, not shown: human IgG1 Fc as encoded by the pFUSE-hIgG1-Fc vector) DVQLQESGGGAVQSGESLRLSCAASGRDLMFYDVAWFRQAPGKEREGVSYIRSSGTLTKYADSVKGRFTISRDNDKNTVSLQMNSLNPEDTAKYYCAARLQSATSHSDLREDEFNSWGQGTQVTVSS | binds
2 | h_Nb4 (expressed from pFUSE-hIgG1-Fc) (Fc fusion, not shown: human IgG1 Fc as encoded by the pFUSE-hIgG1-Fc vector) DVQLQESGGGLVQAGGSLRLSCAAPSRMFSGYTMGWYRQAPGKQRELVAQIANGGFTDYIDSVKGRFSISRDTVLNMMYLQMNSLKPEDTAVYYCNLVLVNGIPTRNWGQGTQVTVSS | binds
3 | h_Nb12 (expressed from pFUSE-hIgG1-Fc) (Fc fusion, not shown: human IgG1 Fc as encoded by the pFUSE-hIgG1-Fc vector) DVQLQESGGGLVQAGGSLRLSCAASGRTFSSRAMGWFRQAPGKEREFVAAISGSGRNTYYADSVKGRFTISRDNAKNSVNLQMNSLKPEDTAVYYCNAAGGGITIATMTQRTQYDYWGQGTQVTVSS | binds
4 | h_Nb13 (expressed from pFUSE-hIgG1-Fc) (Fc fusion, not shown: human IgG1 Fc as encoded by the pFUSE-hIgG1-Fc vector) DVQLQESGGGLVQPGGSLRLSCAASGSIFSINAMGWYRQAPGKSRELVAAITSGGSTNYADSVKGRFTISRDTAKNTVYLLMNSLEPEDTAVYYCNVERRRPPHYLSEYDFDWGQGTQVTVSS | binds
5 | h_Nb26 (expressed from pFUSE-hIgG1-Fc) (Fc fusion, not shown: human IgG1 Fc as encoded by the pFUSE-hIgG1-Fc vector) DVQLQESGGGLVQPGGSLRLSCAAPGSIFRINAMGWYRQAPGKQRELVAAITSGGSTNYADSVQGRFTISRDNAKNTVYLQMNSLKPEDTAVYYCNVERRRPPHYYSDYDFDWGQGTQVTVSS | binds
6 | h_Nb6 (expressed from pFUSE-hIgG1-Fc) (Fc fusion, not shown: human IgG1 Fc as encoded by the pFUSE-hIgG1-Fc vector) DVQLQESGGGLAQPGGSLRLSCAASGFTFSSYAMSWARQAPGKGLEWVAGIYRGGSDTYYADSVKGRFTISRDNTKNTLYLQMNSLKPEDTALYYCIQGWGLGYANYDYWGQGTQVTVSS | binds
7 | h_Nb9 (expressed from pFUSE-hIgG1-Fc) (Fc fusion, not shown: human IgG1 Fc as encoded by the pFUSE-hIgG1-Fc vector) DVQLQESGGGLVQPGGSLRLSCASSGSIFGLGVKGWYRQPPGNQREMVAQIISGGRISYADSVKGRFTISRDNAKNTVYLQMNSLKPEDTAVYYCNAWGPGQRNYWGRGTQVTVSS | binds

Reference: patent US20250197503A1 (SHANGHAI INSTITUTE OF MATERIA MEDICA CHINESE ACADEMY OF …, published 2025)
